From article PMC3148853 come the findings set out here.

One experiment concerns the target Neto1-ΔCUB2-HA (UniProt Q8R4I7). In words: co-IP.
A further experiment concerns the target Neto2-ΔCUB2-HA (UniProt Q8BNJ6). In words: co-IP.

Regarding “FLAG-GluK2 (from UniProt P42260 32-908) (receptor)”, in the experiment with Neto1-ΔCUB2-HA, the amount of GluK2 co-immunoprecipitated, percent of full length Neto1 was 39%. Besides, the amount of GluK2 co-immunoprecipitated, percent of full length Neto2 with Neto2-ΔCUB2-HA stood at 33%.
